Measurements from paper PMC11514452, “Stochastic nature and physiological implications of 5′-NAD RNA cap in bacteria” (Nucleic Acids Research, 2024).

What was measured:
[1] = target: T1, NudC (Escherichia coli, UniProt P32664); assay: NAD-RNA de-capping in vitro, gel read-out, ppGpp titration; format: biochemical; details: read-out: inhibition constant
T1 construct: homodimer by known biology
T1 sequence (P32664 1-257): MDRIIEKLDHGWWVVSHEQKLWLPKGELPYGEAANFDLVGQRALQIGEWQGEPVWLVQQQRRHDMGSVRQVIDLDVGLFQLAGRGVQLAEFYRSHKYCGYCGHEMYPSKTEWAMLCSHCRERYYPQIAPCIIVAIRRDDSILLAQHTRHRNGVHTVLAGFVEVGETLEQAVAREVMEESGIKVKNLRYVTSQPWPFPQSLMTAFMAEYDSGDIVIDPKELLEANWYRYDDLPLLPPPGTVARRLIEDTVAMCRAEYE

[2] = system: 70S ribosome; assay: BLI; details: tRNAfMet (2-fold molar excess), 10 mM Tris-HCl pH 7.4, 60 mM NH4Cl, RelE assay also 6 mM beta-mercaptoethanol, 37 C 10 min, BLI temperature not stated
[3] = system: 70S ribosome; assay: footprinting (RelE printing, ribosome titration); details: tRNAfMet, RelE toxin, 10 mM Tris-HCl pH 7.4, 60 mM NH4Cl, RelE assay also 6 mM beta-mercaptoethanol, 37 C 10 min, BLI temperature not stated
[4] = 10 mM Mg(OAc)2, 5'-NAD (first A replaced by NAD, start codon NAD-UG)
[5] = 10 mM Mg(OAc)2, 5'-triphosphate

Nc1nc2c(ncn2[C@@H]2O[C@H](COP(=O)(O)OP(=O)(O)O)[C@@H](OP(=O)(O)OP(=O)(O)O)[C@H]2O)c(=O)[nH]1 [ppGpp]
Ki [1]: ~70000 nM

AUGAGCACAAAAAAGAAACCAUUAACACAAGAGCAGCUUGAGGACGCACGUCGCCUUAAAGCAAUUUAUG [NAD-cI(1-70) leaderless mRNA]
Kd [2, 4]: 4.3 nM
K half [3, 4]: 4.3 nM

AUGAGCACAAAAAAGAAACCAUUAACACAAGAGCAGCUUGAGGACGCACGUCGCCUUAAAGCAAUUUAUG [ppp-cI(1-70) leaderless mRNA]
Kd [2, 5]: 3.5 nM
K half [3, 5]: 3.8 nM
